Publication PMC13316013, “Shared structural mechanisms of alternating access between the secondary peptide transporter SbmA and ABC transporters” (Nature Communications, 2026)

How the values were obtained:
[1] = target: T1, SbmA (Escherichia coli, UniProt P0AFY6); test: cryo-EM structure; SbmA in complex with Fab S11-1 in lipid nanodiscs (MSP1E3D1; DOPC:POPG:POPO-cardiolipin 13:4:1), SEC in 20 mM MES pH 5.5, 300 KCl; 300 kV; settings: both partners purified
T1 construct: SbmA, inner membrane peptide transporter of Escherichia coli, cloned from genomic DNA into pBXC3H; Homodimer; no cleavage is described; also called SbmA-like peptide transporter (SLiPT) family member; source: E. coli MC1061, purified (Nickel Sepharose, SEC) in DDM; for some samples reconstituted into MSP1E3D1 lipid nanodiscs

[2] = target: the molecule itself; test: as above
[3] = target: T1, SbmA; test: cryo-EM structure; SbmA incubated with SB2 in a 1:2 molar ratio, 30 min, 4 °C; complex purified by SEC in TBS pH 7.4, 0.05% DDM; 200 kV (Table 1 names lipid nanodiscs for identifier D); settings: both partners purified
[4] = target: T1, SbmA; test: as above; settings: both partners purified; remark: listed apart in the source

B1: Fab fragment Fab S11-1 (Fab, V domains shown)
VH: LKLLDSGAELVKPGASVKLSCTASGFNIKDTYMYWVKQRPDQGLEWIGRIDPANGNSKYDPKFQGKATITADTSSNTAYLQVSSLTSEDTAVYYCARWLVRGRRGTMDYWGQGTSVTVSS
VL: DIVMTQSPAILSASPGEKVTMTCRASSSVSYMHWYQQKPGSSPKPWIYATSNLASGVPARFSGSGSGTSYSLTISRVEAEDAATYYCQQWSSNPRTFGGGTKLEIK
stoichiometry N [1]: 1 Fab per SbmA dimer

B2: SbmA (natural protein, Escherichia coli)
chain: MFKSFFPKPGTFFLSAFVWALIAVIFWQAGGGDWVARITGASGQIPISAARFWSLDFLIFYAYYIVCVGLFALFWFIYSPHRWQYWSILGTALIIFVTWFLVEVGVAVNAWYAPFYDLIQTALSSPHKVTIEQFYREVGVFLGIALIAVVISVLNNFFVSHYVFRWRTAMNEYYMANWQQLRHIEGAAQRVQEDTMRFASTLENMGVSFINAIMTLIAFLPVLVTLSAHVPELPIIGHIPYGLVIAAIVWSLMGTGLLAVVGIKLPGLEFKNQRVEAAYRKELVYGEDDATRATPPTVRELFSAVRKNYFRLYFHYMYFNIARILYLQVDNVFGLFLLFPSIVAGTITLGLMTQITNVFGQVRGAFQYLINSWTTLVELMSIYKRLRSFEHELDGDKIQEVTHTLS
notes: SbmA, inner membrane peptide transporter of Escherichia coli, cloned from genomic DNA into pBXC3H; Homodimer; no cleavage is described; also called SbmA-like peptide transporter (SLiPT) family member; source: E. coli MC1061, purified (Nickel Sepharose, SEC) in DDM; for some samples reconstituted into MSP1E3D1 lipid nanodiscs
stoichiometry N [2]: 2

B3: Sybody2 (VHH)
VHH: QVQLVESGGGLVQAGGSLRLSCAASGFPVIANVMYWYRQAPGKEREWVAAIDSSGEYAYYADSVKGRFTISRDNAKNTVYLQMNSLKPEDTAVYYCYVKVGSHYWGQGTQVTVSA
notes: synthetic nanobody (sybody, 16 kDa) selected against biotinylated SbmA T403C; also called SB2; Sb2
stoichiometry N [3]: 1 sybody per SbmA dimer
stoichiometry N [4]: 2 Sb per SbmA dimer
